Measured values published in paper PMC12403049, “Structural basis of ClC-3 transporter inhibition by TMEM9 and PtdIns(3,5)P2” (Nature Structural & Molecular Biology, 2025).

What was measured:
[1] = molecular target: the molecule itself; experiment: cryo-EM structure; ClC-3 alone, 3 mg/ml, no exogenous ligands, glyco-diosgenin, 50 mM Tris-HCl pH 8, 150 mM KCl, 2 mM DTT; C2 symmetry
[2] = molecular target: the molecule itself; experiment: cryo-EM structure; ClC-3 co-expressed and co-purified with T9A, 5 mg/ml, no exogenous ligands, glyco-diosgenin, 50 mM Tris-HCl pH 8, 150 mM KCl, 2 mM DTT; four classes by 3D classification

B1: human ClC-3 purified alone (C-terminal mCerulean tag removed) (natural protein)
chain: MESEQLFHRGYYRNSYNSITSASSDEELLDGAGVIMDFQTSEDDNLLDGDTAVGTHYTMTNGGSINSSTHLLDLLDEPIPGVGTYDDFHTIDWVREKCKDRERHRRINSKKKESAWEMTKSLYDAWSGWLVVTLTGLASGALAGLIDIAADWMTDLKEGICLSALWYNHEQCCWGSNETTFEERDKCPQWKTWAELIIGQAEGPGSYIMNYIMYIFWALSFAFLAVSLVKVFAPYACGSGIPEIKTILSGFIIRGYLGKWTLMIKTITLVLAVASGLSLGKEGPLVHVACCCGNIFSYLFPKYSTNEAKKREVLSAASAAGVSVAFGAPIGGVLFSLEEVSYYFPLKTLWRSFFAALVAAFVLRSINPFGNSRLVLFYVEYHTPWYLFELFPFILLGVFGGLWGAFFIRANIAWCRRRKSTKFGKYPVLEVIIVAAITAVIAFPNPYTRLNTSELIKELFTDCGPLESSSLCDYRNDMNASKIVDDIPDRPAGIGVYSAIWQLCLALIFKIIMTVFTFGIKVPSGLFIPSMAIGAIAGRIVGIAVEQLAYYHHDWFIFKEWCEVGADCITPGLYAMVGAAACLGGVTRMTVSLVVIVFELTGGLEYIVPLMAAVMTSKWVGDAFGREGIYEAHIRLNGYPFLDAKEEFTHTTLAADVMRPRRNDPPLAVLTQDNMTVDDIENMINETSYNGFPVIMSKESQRLVGFALRRDLTIAIESARKKQEGIVGSSRVCFAQHTPSLPAESPRPLKLRSILDMSPFTVTDHTPMEIVVDIFRKLGLRQCLVTHNGRLLGIITKKDILRHMAQTANQDPASIMFN
notes: human ClC-3 (P51790), the long isoform used for structural analysis (proton glutamate E339); The cloning of a C-terminally tagged ClC-3 is not described elsewhere in the methods; Residues of the PreScission linker may be left after cleavage; also called ligand-free human ClC-3; not shown: mCerulean, C-terminal, cleaved
**Q.** With B1 as the protein, how does the “stoichiometry N” value [1] read?
**A.** 2

B2: human ClC-3 purified in complex with T9A (N-terminal mCerulean tag removed) (natural protein)
chain: B1 chain
notes: human ClC-3 (P51790), the long isoform used for structural analysis (proton glutamate E339); Residues of the PreScission linker may be left on the N-terminus after cleavage; PtdIns(3,5)P2 co-purified with the complex; also called ClC-3/T9A; ClC-3/noT9A; not shown: mCerulean, N-terminal, cleaved
**Q.** Which “stoichiometry N” value [2] does the source give for B2 here?
**A.** 2
